# Experimental data: US4829052A, “Serine protease inhibitors” (Monsanto Company, priority 1987, dated 1989)
# What was measured:
# Type in all cases: biochemical
# [1] = target: T1, Human Sputum Cathepsin G (Homo sapiens, UniProt P08311); test: Cathepsin G assay (spectrophotometric, p-nitroanilide substrate); conditions: inhibitor/protease ratio between about 10/1 and 50/1
# T1 construct: Human Sputum Cathepsin G (Product No. SG-45, EPC, Inc., Pacific, Mo.); purchased EPC, Inc., Pacific, Mo; SG-45; host or cells: human sputum
# T1 sequence (P08311 21-255): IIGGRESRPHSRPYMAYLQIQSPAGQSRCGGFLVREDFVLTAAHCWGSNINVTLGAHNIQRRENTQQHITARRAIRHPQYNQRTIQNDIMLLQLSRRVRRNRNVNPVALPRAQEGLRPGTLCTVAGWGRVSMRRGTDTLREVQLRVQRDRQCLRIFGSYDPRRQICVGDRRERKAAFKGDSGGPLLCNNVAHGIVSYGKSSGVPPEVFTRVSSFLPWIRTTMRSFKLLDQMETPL
# Description: (§1) The inhibitory activity of the polypeptides of the present invention can be easily assayed using in vitro assays. In these types of spectrophotometric assays the activity of the serine protease is measured toward an appropriate p-nitroanilide substrate in the presence and absence of the peptide inhibitor. The enzyme catalyzed hydrolysis of the peptide p-nitroanilide substrate produces p-nitroanaline which results in an increase in absorbance which is monitored in the range of 405 to 410 nm. The rate of increase in absorbance is a measure of the enzymatic activity and the decrease in this rate relative to a suitable control is used to ascertain inhibition. The general assay procedure and details of the particular assays employed in the examples are provided in the Appendix following the examples. It is also possible to test the polypeptides in a functionally oriented assay that emulates in vivo conditions. Such an inhibition assay for elastase is also described in the Appendix.
# (§2) Generalized Protocol Spectrophotometric Assays:
# (§3) (1) Pipette 100 μl of enzyme solution into a disposable polystyrene cuvette (1 cm optical path length).
# (§4) (2) Add (1900-X) μl of bufferto the cuvette, where X is the volume of test solution in microliters that is added in the next step.
# (§5) Add X μl of test solution to the cuvette, where X ranges from 0 μl for the control to a maximum of about 500 μl. Incubate the solution for a period of 1 to 5 minutes at ambient temperature.
# (§6) (4) Add 100 μl of substrate solution to the cuvette. Mix the contents by covering the cuvette with a piece of paraffin film and repeatedly inverting for a period of 5 to 15 seconds.
# (§7) (5) Record the change in absorbance for about 5 minutes at either 405 or 410 nm, depending on the assay, with a spectrophotometer equipped with a suitable recording device.
# (§8) The percent inhibition is calculated from the formula [formula] where (ΔA/min) is the initial rate of absorbance change.
# (§9) (7) For more accurate quantitative determinations temperature control of the cuvette holders and the reagent solutions can be instituted.
# (§10) (8) The test solution can be crude oxidized peptide prepared as described above, fractions from a chromatographic separation or purified polypeptides.
# (A) Buffer Solution - Tris-NaCl buffer consisting of 0.1M Tris-HCl, pH 8.0 containing 0.5M NaCl and 0.03% sodium azide.
# (B) Substrate solution - Dissolve 50 mg of N-succinyl-L-alanyl-L-alanyl-L-prolyl-L-phenylalanine p-nitroanilide in 1 ml of 1-methyl-2-pyrrolidinone and dilute to 50 ml with Tris-NaCl buffer.
# (C) Enzyme Solution - Human Sputum Cathepsin G (Product No. SG-45, EPC, Inc., Pacific, Mo.). Dissolve 1 mg of protein per 1 ml of Tris-NaCl buffer. Store on ice or at 4° C.
# (D) Test Solutions - See the general protocol, number 8.
# Procedure: Use the above solution in the general protocol described above. […]
# [2] = target: T2, Human Sputum Elastase (Homo sapiens, UniProt P08246); test: Elastase assay (spectrophotometric, p-nitroanilide substrate)
# T2 construct: Human Sputum Elastase, product No. SE-563 EPC, Inc., Pacific, Mo; USA, Lot 85701; purchased EPC, Inc., Pacific, Mo; USA SE-563; host or cells: human sputum
# T2 sequence (P08246 30-267): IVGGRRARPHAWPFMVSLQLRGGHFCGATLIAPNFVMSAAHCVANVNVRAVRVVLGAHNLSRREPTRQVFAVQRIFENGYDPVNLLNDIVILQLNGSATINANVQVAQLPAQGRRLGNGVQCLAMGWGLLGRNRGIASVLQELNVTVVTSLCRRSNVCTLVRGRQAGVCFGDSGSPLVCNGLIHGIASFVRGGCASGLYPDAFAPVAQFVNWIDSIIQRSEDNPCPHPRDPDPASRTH
# Description: as §1, §2, §3, §4, §5, §6, §7, §8, §9, §10
# (A) Buffer Solution - Tris-NaCl buffer consisting of 0.1M Tris-HCl pH 7.5 at 25° C. containing 0.5M NaCl and 0.01% (w/v) NaNs.
# (B) Substrate Solution - Dissolve 45.5 mg of N-succinyl-L-alanyl-L-alanyl-L-alanine p-nitroanilide in 1 ml of 1-methyl-2-pyrrolidinone. Add 32 ml of Tris-NaCl buffer.
# (C) Enzyme Solution - Human Sputum Elastase, product No. SE-563 EPC, Inc., Pacific, Mo. USA, Lot 85701. Dissolve 1 mg in 1 ml of Tris-NaCl buffer. Store on ice or at 4° C.
# (§11) (D) Test Solution - See general protocol, number 8.
# (§12) Procedure: Use the above solutions in the general protocol described above.
# (1) Buffer Solution - Tris-NaCl buffer -see Method 1.
# (2) Substrate Solution - Dissolve 50 mg of 3-carbomethoxypropionyl-L-alanyl-L-alanyl-L-[…]-L-valine p-nitroanilidein 1 ml of 1-methyl-2-pyrrolidinone. Add 32 ml of Tris-NaCl buffer.
# (3) Enzyme Solution - Human sputum elastase, product No. SE-563, EPC, inc. Pacific, Mo. USA, Lot 85071. Prepare a sample at a concentration of 0.01 mg per ml of Tris-NaCl buffer. Store on ice.
# (4) Test Solution - general protocol, number 8.
# Procedure: Use the above solutions in the general protocol.
# (1) Porcine pancreatic elastase may be substituted for human elastase when it is desired to test for an inhibitor of the former.
# (2) The activity of an elastase preparation can be calculated as [formula]
# (3) The Tris-NaCl buffer also can be pH 8.0 with 0.03% sodium azide. Results should be compared at a single pH.
# [3] = target: T3, bovine trypsin (Bos taurus, UniProt P00760); test: Trypsin assay (spectrophotometric, N-Benzoyl-L-arginine p-nitroanilide substrate); conditions: inhibitor/protease ratio between about 10/1 and 50/1
# T3 sequence (P00760 24-246): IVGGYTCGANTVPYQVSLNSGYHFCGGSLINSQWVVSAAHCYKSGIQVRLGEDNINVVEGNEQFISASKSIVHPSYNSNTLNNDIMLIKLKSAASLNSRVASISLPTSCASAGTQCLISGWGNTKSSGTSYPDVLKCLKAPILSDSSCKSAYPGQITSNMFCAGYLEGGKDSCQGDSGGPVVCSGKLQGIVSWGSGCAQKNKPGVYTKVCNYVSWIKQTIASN
# Description: as §1, §2, §3, §4, §5, §6, §7, §8, §9, §10
# (A) Buffer Solution - Triethanolamine buffer consisting of 200 mM triethanolamine, 20 mM CaCl2, pH 7.8
# (B) Substrate solution - Dissolve 50 mg of N-Benzoyl-L-arginine p-nitroanilide in 50 ml of water. Sonicate for 5 to 10 minutes to completely dissolve the solid material.
# (C) Enzyme solution - Dissolve 1 mg of bovine trypsin in 10 ml of 0.001N HCl stored on ice during the assay.
# as §11, §12
substance,measurement,setting,value
RVCPVILMKCKKDSDCLAECVCLEHGYCG (RVCPVILMKCKKDSDCLAECVCLEHGYCG) [Peptide 8],Inhibitory Activity Cathepsin G,[1],- (Represents less than 10% inhibition)
same,titration curve for elastase inhibition,[2]; FIG. 2,essentially stochiometric inhibition
same,Inhibitory Activity Elastase,[2]; inhibitor/protease ratio between about 10/1 and 50/1,++ (Represents greater than 50% inhibition)
same,Inhibitory Activity Trypsin,[3],- (Represents less than 10% inhibition)
